According to the RNAGym collection of RNA variant scans (doi:10.7554/elife.80360):

B1: Twister Ribozyme (parent)
chain: AACACUGCCAAUGCCGGUCCCAAGCCCGGAUAAAAGUGGAGGGGGCGG

Variants of: B1
Assay: self-cleavage, relative activity (ratio to wild type); higher = more cleavage; co-transcriptional

Point of comparison: AACACGGCCAAUGCCGGUCCCAUGCCCGGAUAAAAGUGGAGGGGGCGG, self-cleavage 0.0909. Against it:
- AACACCGCCAAUGCCGGUCCCAAGCCCGAAUAAAAGUGGAGGGGGCGG — higher, 0.34
- AACACCGCCAAUGCCGGUCCCAAGCCCGUAUAAAAGUGGAGGGGGCGG — higher, 0.371
- AACACCGCCAAUGCCGGUCCCAAGCCCGGAUAAAAAUGGAGGGGGCGG — higher, 0.136
- AACACCGCCAAUGCCGGUCCCAAGCCCGGAUAAAAUUGGAGGGGGCGG — higher, 0.0917
- AACACCGCCAAUGCCGGUCCCAAGCCCGGAUAAAAGUUGAGGGGGCGG — higher, 0.282
- AACACCGCCAAUGCCGGUCCCAAGCCCGGAUAAAAGUGAAGGGGGCGG — higher, 0.273
- AACACCGCCAAUGCCGGUCCCAAGCCCGGAUAAAAGUGCAGGGGGCGG — higher, 0.136
- AACACCGCCAAUGCCGGUCCCAAGCCCGGAUAAAAGUGUAGGGGGCGG — higher, 0.114
- AACACCGCCAAUGCCGGUCCCAAGCCCGGAUAAAAGUGGAGCGGGCGG — higher, 0.11
- AACACCGCCAAUGCCGGUCCCAAGCCCGGAUAAAAGUGGAGUGGGCGG — higher, 0.107
- AACACCGCCAAUGCCGGUCCCAAGCCCGGAUAAAAGUGGAGGAGGCGG — lower, 0.0844
- AACACCGCCAAUGCCGGUCCCAAGCCCGGAUAAAAGUGGAGGCGGCGG — higher, 0.128
- AACACCGCCAAUGCCGGUCCCAAGCCCGGAUAAAAGUGGAGGUGGCGG — higher, 0.134
- AACACCGCCAAUGCCGGUCCCAAGCCCGGAUAAAAGUGGAGGGAGCGG — higher, 0.63
- AACACCGCCAAUGCCGGUCCCAAGCCCGGAUAAAAGUGGAGGGCGCGG — higher, 0.513
- AACACCGCCAAUGCCGGUCCCAAGCCCGGAUAAAAGUGGAGGGGGCAG — higher, 0.579
- AACACCGCCAAUGCCGGUCCCAAGCCCGGAUAAAAGUGGAGGGGGCCG — higher, 0.209
- AACACCGCCAAUGCCGGUCCCAAGCCCGGAUAAAAGUGGAGGGGGCUG — higher, 0.575
- AACACCGCCAAUGCCGGUCCCAAGCCCGGAUAAAAGUGGAGGGGGCGA — higher, 0.514
- AACACCGCCAAUGCCGGCCCCAAGCCCGGAUAAAAGUGGAGGGGGCGG — lower, 0.0688
- AACACCGCCAAUGCCGGGCCCAAGCCCGGAUAAAAGUGGAGGGGGCGG — lower, 0.0358
- AACACCGCCAAUGCCGGUCCCAAGCCCGGAUAAAAGAGGAGGGGGCGG — higher, 0.131
- AACACCGCCAAUGCCGGUCCCAAGCCCGGAUAAAAGCGGAGGGGGCGG — higher, 0.0955
- AACACGGCCAAUGCCGGUCCCAAGCCCGGAUAAAAGUGGAGGGGGCGG — higher, 0.486
- AACACGGCCUAUGCCGGUCCCAAGCCCGGAUAAAAGUGGAGGGGGCGG — higher, 0.204
- AACACGGCCAUUGCCGGUCCCAAGCCCGGAUAAAAGUGGAGGGGGCGG — higher, 0.381
- AACACGGCCAAUGCCGGUCCCUAGCCCGGAUAAAAGUGGAGGGGGCGG — higher, 0.136
- AACACGGCCAAUGCCGGUCCCAAGCCCGGGUAAAAGUGGAGGGGGCGG — higher, 0.322
- AACACGGCCAAUGCCGGUCCCAAGCCCGGUUAAAAGUGGAGGGGGCGG — higher, 0.687
- AACACGGCCAAUGCCGGUCCCAAGCCCGGAUUAAAGUGGAGGGGGCGG — higher, 0.405
- AACACGGCCAAUGCCGGUCCCAAGCCCGGAUAGAAGUGGAGGGGGCGG — higher, 0.199
- AACACGGCCAAUGCCGGUCCCAAGCCCGGAUAUAAGUGGAGGGGGCGG — higher, 0.234
- AACACGGCCAAUGCCGGUCCCAAGCCCGGAUAACAGUGGAGGGGGCGG — higher, 0.539
- AACACGGCCAAUGCCGGUCCCAAGCCCGGAUAAGAGUGGAGGGGGCGG — higher, 0.392
- AACACGGCCAAUGCCGGUCCCAAGCCCGGAUAAACGUGGAGGGGGCGG — higher, 0.678
- AACACGGCCAAUGCCGGUCCCAAGCCCGGAUAAAUGUGGAGGGGGCGG — higher, 0.549
- AACACGGCCAAUGCCGGUCCCAAGCCCGGAUAAAAGUGGGGGGGGCGG — higher, 0.137
- AACACGGACAAUGCCGGUCCCAAGCCCGGAUAAAAGUGGAGGGGGCGG — higher, 0.212
- AACACGGCGAAUGCCGGUCCCAAGCCCGGAUAAAAGUGGAGGGGGCGG — higher, 0.171
- AACACGGCUAAUGCCGGUCCCAAGCCCGGAUAAAAGUGGAGGGGGCGG — higher, 0.163
- AACACGGCCAAUGUCGGUCCCAAGCCCGGAUAAAAGUGGAGGGGGCGG — higher, 0.608
- AACACGGCCAAUGCGGGUCCCAAGCCCGGAUAAAAGUGGAGGGGGCGG — lower, 0.0391
- AACACGGCCAAUGCCGGUCACAAGCCCGGAUAAAAGUGGAGGGGGCGG — lower, 0.0634
- AACACGGCCAAUGCCGGUCGCAAGCCCGGAUAAAAGUGGAGGGGGCGG — lower, 0.0753
- AACACGGCCAAUGCCGGUCUCAAGCCCGGAUAAAAGUGGAGGGGGCGG — higher, 0.236
- AACACGGCCAAUGCCGGUCCAAAGCCCGGAUAAAAGUGGAGGGGGCGG — lower, 0.0289
- AACACGGCCAAUGCCGGUCCUAAGCCCGGAUAAAAGUGGAGGGGGCGG — lower, 0.0405
- AACACGGCCAAUGCCGGUCCCAAGACCGGAUAAAAGUGGAGGGGGCGG — lower, 0.058
- AACACGGCCAAUGCCGGUCCCAAGCGCGGAUAAAAGUGGAGGGGGCGG — lower, 0.0499
- AACACGCCCAAUGCCGGUCCCAAGCCCGGAUAAAAGUGGAGGGGGCGG — higher, 0.873
- AACACGGCCAAUGCCAGUCCCAAGCCCGGAUAAAAGUGGAGGGGGCGG — higher, 0.226
- AACACGGCCAAUGCCGGUCCCAAACCCGGAUAAAAGUGGAGGGGGCGG — lower, 0.0855
- AACACGGCCAAUGCCGGUCCCAAGCCCGUAUAAAAGUGGAGGGGGCGG — higher, 0.173
